Reference: patent US20020099180A1 (published 2002)

Molecular target: T1, tetanus toxoid (UniProt P04958 2-1315)
T1 construct: also called TTX
Assay: ELISA, wells coated with FAP or irrelevant Ag as for the chimeric scFv

T1 sequence (P04958 2-457 limits assumed, chain 1 of 2): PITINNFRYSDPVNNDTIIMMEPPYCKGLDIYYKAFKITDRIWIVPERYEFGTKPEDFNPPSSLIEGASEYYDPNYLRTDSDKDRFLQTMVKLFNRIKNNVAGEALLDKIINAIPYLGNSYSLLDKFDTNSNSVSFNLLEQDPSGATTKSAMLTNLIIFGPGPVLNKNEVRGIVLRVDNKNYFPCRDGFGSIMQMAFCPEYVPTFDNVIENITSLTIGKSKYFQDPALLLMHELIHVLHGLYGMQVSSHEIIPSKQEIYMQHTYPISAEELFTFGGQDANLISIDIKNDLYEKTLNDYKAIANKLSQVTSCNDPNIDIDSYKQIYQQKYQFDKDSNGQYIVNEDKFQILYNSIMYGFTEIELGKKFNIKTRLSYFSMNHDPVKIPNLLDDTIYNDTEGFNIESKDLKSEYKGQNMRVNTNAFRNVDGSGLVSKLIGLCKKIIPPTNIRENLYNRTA
T1 sequence (P04958 458-1315 limits assumed, chain 2 of 2): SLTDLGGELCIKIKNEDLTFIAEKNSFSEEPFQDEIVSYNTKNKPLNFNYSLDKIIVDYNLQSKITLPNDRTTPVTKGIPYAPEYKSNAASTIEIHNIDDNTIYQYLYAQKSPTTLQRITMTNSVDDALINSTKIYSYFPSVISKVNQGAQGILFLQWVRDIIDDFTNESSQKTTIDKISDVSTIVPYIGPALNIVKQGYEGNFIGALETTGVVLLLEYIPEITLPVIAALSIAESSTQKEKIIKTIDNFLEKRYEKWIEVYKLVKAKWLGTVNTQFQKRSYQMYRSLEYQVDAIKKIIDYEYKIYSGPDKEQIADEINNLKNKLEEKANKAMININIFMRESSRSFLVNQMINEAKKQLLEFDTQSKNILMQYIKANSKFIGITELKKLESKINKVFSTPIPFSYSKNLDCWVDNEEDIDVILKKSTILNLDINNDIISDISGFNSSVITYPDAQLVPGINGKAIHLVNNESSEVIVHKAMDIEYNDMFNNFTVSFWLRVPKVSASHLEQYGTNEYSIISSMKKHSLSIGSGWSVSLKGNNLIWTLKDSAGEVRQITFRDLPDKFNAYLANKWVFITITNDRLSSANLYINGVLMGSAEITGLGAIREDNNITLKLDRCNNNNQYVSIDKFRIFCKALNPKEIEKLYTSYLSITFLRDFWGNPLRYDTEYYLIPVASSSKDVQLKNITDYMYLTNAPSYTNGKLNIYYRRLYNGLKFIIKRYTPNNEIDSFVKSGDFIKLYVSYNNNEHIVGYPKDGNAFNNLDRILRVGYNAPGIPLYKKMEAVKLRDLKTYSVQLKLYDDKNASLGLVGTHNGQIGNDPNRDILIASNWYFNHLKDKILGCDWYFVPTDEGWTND

B1: scFv #18 (VH #18, IgG; VL III43; murine HCDR3 F19) (scFv)
scFv: QVQLVQSGAELKKPGSSMKVSCKASGDTFSTYSINWVRQAPGQGLEWMGVINPSGGSTSYAQKFQGRVTMTRDTSTSTVYMELSSLRSEDTAVYYCARRRIAYGYDEGHAMDYWGQGTLVTVSSASTKGPKLEEGEFSEARVDIQMTQSPSSLSASTGDRVTITCRASQDISSYLAWYQQAPGKAPHLLMSGATTLQTGVPSRFSGSGSGTDFTLTISSLQAEDVAVYYCQQYYRTPFTFGQGTKLEIKRTVAAPSVFAA
notes: Humanised monovalent scFv, detected through the c-myc tag with 9E10; also called clone #18; VH18 YOL III43; not shown: c-myc and HIS6 tags (pOPE101), or pIII in the screening ELISA
- binding result: no binding

B2: scFv #34 (VH #34, IgG; VL III43; murine HCDR3 F19) (scFv)
scFv: QVQLQQSGAEVKKPGSSVKVSCKASGGTFSTHTINWVRQAPGQGLEWMGGIAPMFGTANYAQKFQGRVTITADKSTSTAYMEMSSLRSDDTAVYYCARRRIAYGYDEGHAMDYWGQGTLVTVSSASTKGPKLEEGEFSEARVDIQMTQSPSSLSASTGDRVTITCRASQDISSYLAWYQQAPGKAPHLLMSGATTLQTGVPSRFSGSGSGTDFTLTISSLQAEDVAVYYCQQYYRTPFTFGQGTKLEIKRTVAAPSVFAA
notes: Humanised monovalent scFv, detected through the c-myc tag with 9E10; also called clone #34; VH34YOL III43; not shown: c-myc and HIS6 tags (pOPE101), or pIII in the screening ELISA
- binding result: no binding
